The series concerns the target PARP-1 F1+F2 (UniProt P09874 1-214). Put plainly: pull-down.

Chain of PARP-1 F1+F2 (P09874 1-214): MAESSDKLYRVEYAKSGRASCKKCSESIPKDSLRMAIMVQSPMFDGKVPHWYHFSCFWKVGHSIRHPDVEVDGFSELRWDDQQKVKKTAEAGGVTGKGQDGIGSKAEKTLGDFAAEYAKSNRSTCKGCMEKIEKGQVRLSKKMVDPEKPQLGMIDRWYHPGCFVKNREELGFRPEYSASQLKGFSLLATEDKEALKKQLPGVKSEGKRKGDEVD

B1: 15 bp duplex, biotinylated (dsDNA)
DNA 1: ACTGCGTTTATGTAT
DNA 2: ATACATAAACGCAGT
As to B1, the binding result is given as “binds”.

The record behind these values is article PMC3744807.
